Measured values as given in patent publication US8632989B1, “Mutant insulin degrading enzyme and methods of use” (University of Kentucky Research Foundation, priority 2011, dated 2014).

Target: T1, Abz-GGFLRKHGQ-EDDnp (Rattus norvegicus, UniProt P35559)
T1 construct: begin at methionine 42, which is believed to be the in vivo start site, and extend through the native C-terminal residue leucine 1019; hexahistidine with linker holding a TEV protease site (N, cleaved yes); made in house; host or cells: SF9 insect cells (baculovirus, pFastBac HTb)
T1 sequence (P35559 42-1019): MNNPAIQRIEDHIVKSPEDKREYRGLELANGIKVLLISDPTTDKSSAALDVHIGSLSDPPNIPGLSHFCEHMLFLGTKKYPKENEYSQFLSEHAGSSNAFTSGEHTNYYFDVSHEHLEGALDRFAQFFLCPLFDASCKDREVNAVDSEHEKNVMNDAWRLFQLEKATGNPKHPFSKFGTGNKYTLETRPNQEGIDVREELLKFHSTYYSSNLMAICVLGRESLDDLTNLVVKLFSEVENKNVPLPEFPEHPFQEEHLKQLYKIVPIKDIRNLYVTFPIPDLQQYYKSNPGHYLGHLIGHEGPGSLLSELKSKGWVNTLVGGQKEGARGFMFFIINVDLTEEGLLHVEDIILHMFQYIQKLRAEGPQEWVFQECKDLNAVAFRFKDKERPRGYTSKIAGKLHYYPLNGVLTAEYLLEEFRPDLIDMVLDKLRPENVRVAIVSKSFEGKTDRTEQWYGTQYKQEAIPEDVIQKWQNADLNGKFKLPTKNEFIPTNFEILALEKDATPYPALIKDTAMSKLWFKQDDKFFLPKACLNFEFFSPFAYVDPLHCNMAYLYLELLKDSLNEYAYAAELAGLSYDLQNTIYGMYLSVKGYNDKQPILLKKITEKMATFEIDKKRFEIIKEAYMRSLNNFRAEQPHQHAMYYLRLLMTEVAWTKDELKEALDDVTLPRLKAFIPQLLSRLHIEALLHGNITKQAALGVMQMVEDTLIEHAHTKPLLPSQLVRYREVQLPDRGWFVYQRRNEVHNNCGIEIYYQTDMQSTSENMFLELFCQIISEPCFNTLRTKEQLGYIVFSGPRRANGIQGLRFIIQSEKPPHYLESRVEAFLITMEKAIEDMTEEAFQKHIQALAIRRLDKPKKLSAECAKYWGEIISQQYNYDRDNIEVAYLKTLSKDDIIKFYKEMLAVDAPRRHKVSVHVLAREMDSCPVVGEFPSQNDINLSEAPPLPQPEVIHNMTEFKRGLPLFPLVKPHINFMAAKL
Test: Activation by bradykinin, wild type rIDE and distal site mutants
Assay type: biochemical
Settings: 10 μM Abz-GGFLRKHGQ-EDDnp as substrate
Experimental: FIG. 17. Effects of distal site mutations. (A) Comparison of the kinetics of wild type IDE with the distal site mutants. Activity was measured with varying amounts of Abz-[…]-EDDnp (SEQ ID NO:3) substrate as indicated. Either hyperbolic (Michaelis-Menten equation) or sigmoidal curves (Hill equation) were fit to the data. (B) Effect of bradykinin on the activity of wild type IDE and the distal site mutants. (C) Activation of wild type IDE and distal site mutants by ATP. Relative activity is the fold activation above the level of the wild type enzyme alone.
The activity of IDE was measured by following the increase in fluorescence upon hydrolysis at the L-R bond of the fluorogenic peptide Abz-[…]-EDDnp (SEQ ID NO:3) on a SpectraMax Gemini XS fluorescence plate reader using an excitation wavelength of 318 nm and emission wavelength of 419 nm. Reactions were carried out in 200 μl volumes containing 50 mM Tris-HCl, pH 7.4, 1.92 μg of wild type rIDE, 4.6 μg of rIDE-V360S, 4.3 μg rIDE-I374S, or 1.63 μg of rIDE-Y609F. For measurements of activation by bradykinin, IDE activity was determined with 10 μM Abz-[…]-EDDnp (SEQ ID NO:3) as substrate in 50 mM Tris-HCl buffer, pH 7.4. The amount of protein was 0.5 μg for wild type rIDE and 5 μg for each of the IDE distal-site mutants. Data were analyzed using Softmax 4.0 (Molecular Devices) and kinetic parameters calculated with Prism (Graphpad Software). […]

B1: IDE: Native rat insulin degrading enzyme (SEQ ID NO:1), expressed as hexahistidine fusion protein in Sf9 insect cells (protein, listed as Rattus norvegicus)
chain: MRNGLVWLLHPALPSTLHSILGARPPPVKRLCGFPKQIYSTMNNPAIQRIEDHIVKSPEDKREYRGLELANGIKVLLISDPTTDKSSAALDVHIGSLSDPPNIPGLSHFCEHMLFLGTKKYPKENEYSQFLSEHAGSSNAFTSGEHTNYYFDVSHEHLEGALDRFAQFFLCPLFDASCKDREVNAVDSEHEKNVMNDAWRLFQLEKATGNPKHPFSKFGTGNKYTLETRPNQEGIDVREELLKFHSTYYSSNLMAICVLGRESLDDLTNLVVKLFSEVENKNVPLPEFPEHPFQEEHLKQLYKIVPIKDIRNLYVTFPIPDLQQYYKSNPGHYLGHLIGHEGPGSLLSELKSKGWVNTLVGGQKEGARGFMFFIINVDLTEEGLLHVEDIILHMFQYIQKLRAEGPQEWVFQECKDLNAVAFRFKDKERPRGYTSKIAGKLHYYPLNGVLTAEYLLEEFRPDLIDMVLDKLRPENVRVAIVSKSFEGKTDRTEQWYGTQYKQEAIPEDVIQKWQNADLNGKFKLPTKNEFIPTNFEILALEKDATPYPALIKDTAMSKLWFKQDDKFFLPKACLNFEFFSPFAYVDPLHCNMAYLYLELLKDSLNEYAYAAELAGLSYDLQNTIYGMYLSVKGYNDKQPILLKKITEKMATFEIDKKRFEIIKEAYMRSLNNFRAEQPHQHAMYYLRLLMTEVAWTKDELKEALDDVTLPRLKAFIPQLLSRLHIEALLHGNITKQAALGVMQMVEDTLIEHAHTKPLLPSQLVRYREVQLPDRGWFVYQRRNEVHNNCGIEIYYQTDMQSTSENMFLELFCQIISEPCFNTLRTKEQLGYIVFSGPRRANGIQGLRFIIQSEKPPHYLESRVEAFLITMEKAIEDMTEEAFQKHIQALAIRRLDKPKKLSAECAKYWGEIISQQYNYDRDNIEVAYLKTLSKDDIIKFYKEMLAVDAPRRHKVSVHVLAREMDSCPVVGEFPSQNDINLSEAPPLPQPEVIHNMTEFKRGLPLFPLVKPHINFMAAKL
modifications: hexahistidine tag; wild-type Insulin Degrading Enzyme (IDE) from rat
- Heterotropic activation with bradykinin: approximately 4 fold
